From PMC4938799, “LD Motif Recognition by Talin: Structure of the Talin-DLC1 Complex” (Structure(London, England:1993), 2016)
Like-named read-outs stand apart in the source and are kept apart here. Ends that are not written are not given here.

Columns and labels:
talin R8 domain = target: T1, talin R8 domain (Mus musculus, UniProt P26039); assay: 1H,15N-HSQC NMR titration of talin R8 with peptides; format: binding
T1 construct: conducted using 0.1 mM [^15N]talin R8 domain; hexa-histidine tag followed by TEV protease cleavage site (N, cleaved yes); made in house; host or cells: E. coli BL21 STAR (DE3)
T1 sequence (P26039 1461-1580 limits assumed): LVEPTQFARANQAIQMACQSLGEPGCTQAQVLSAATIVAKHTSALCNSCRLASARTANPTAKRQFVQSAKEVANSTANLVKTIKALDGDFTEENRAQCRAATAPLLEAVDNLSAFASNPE
Description: NMR spectra were collected on Bruker Avance III 600- and 800-MHz spectrometers equipped with CryoProbes. Experiments were performed at 298 K in 20 mM sodium phosphate (pH 6.5) and 50 mM NaCl with 5% (v/v) ^2H2O. Dissociation constants were evaluated from the ^1H,^15N-HSQC chemical-shift changes in the titration experiments conducted using 0.1 mM [^15N]talin R8 domain. Peptides were added from 5- to 10-mM stock solutions to generate titration points at peptide/protein ratios 0.1, 0.2, 0.5, 0.75, 1, 2, 4, and 8.
NMR Spectroscopy - Spectra were processed with TopSpin (Bruker) and analysed using CCPN Analysis (Vranken et al., 2005). […] The changes in chemical shift of 15N-talin R8 domain were calculated from 1H,15N-HSQC spectra as Δδ=√(ΔδH2+(ΔδN*0.15)2). The cross-peaks corresponding to the bound state were assigned by following chemical shift changes throughout the R8 titration with the increasing amount of peptides.
Dissociation constants were evaluated from the 1H,15N-HSQC chemical shift changes in the titration experiments conducted using 0.1 mM 15N-talin R8 domain. Peptides were added from 5-10 mM stock solutions to generate titration points at 0.1, 0.2, 0.5, 0.75, 1, 2, 4 and 8 peptide:protein ratios.
Concentrations of the DLC1 and RIAM peptides were determined from UV absorbance at 280 nm. […]
Concentration of the R8 domain that lacks UV-active aromatic residues was estimated from the comparison with the spectra of the R3 domain that has similar molecular weight and shape using the calibration procedure described in (Wider and Dreier, 2006). Dissociation constants were determined by fitting the chemical shift changes to the equation:
( ) ( ) [𝑃] + [𝐿] + 𝐾𝑑 − √([𝑃] + [𝐿] + 𝐾𝑑)2 − 4[𝑃][𝐿] where ∆(𝐻, 𝑁)0 is the weighted chemical shift difference at saturation, [P] and [L] are protein and ligand concentrations, respectively. Data were fitted independently for the well-resolved peaks and the average Kd was calculated from 3 different peaks with the lowest standard deviations of the fits. […]

[1] = Solubility of peptides and protein fragments; format: physicochemical

DLC1(467–489): synthetic DLC1 peptide, residues 467–489; shorter fragment used for crystallization
chemical-shift changes / broadening of talin R8 on peptide addition (talin R8 domain; 1H,15N-HSQC, talin R8, 298 K, pH 6.5, 4-fold excess of peptide (DLC1(467–489), paxillin LD1) or titration): large chemical-shift changes | solubility [1]: less soluble than the longer fragment

ENEDIFPELDDILYHVKGMQRIVNQWSEK [DLC1(461–489)]
Kd (talin R8 domain; read-out: KD determined by fitting chemical-shift changes): 48 µM

MDDLDALLADLESTTS [paxillin LD1]
Kd (talin R8 domain): 168 µM
